Results as given in US6689868 (Dana-Farber, dated 2004).

T1: B42-CD2BP1L fusion (CD2BP1L in pJG4-5) (human, UniProt O43586 1-416)
T1 sequence: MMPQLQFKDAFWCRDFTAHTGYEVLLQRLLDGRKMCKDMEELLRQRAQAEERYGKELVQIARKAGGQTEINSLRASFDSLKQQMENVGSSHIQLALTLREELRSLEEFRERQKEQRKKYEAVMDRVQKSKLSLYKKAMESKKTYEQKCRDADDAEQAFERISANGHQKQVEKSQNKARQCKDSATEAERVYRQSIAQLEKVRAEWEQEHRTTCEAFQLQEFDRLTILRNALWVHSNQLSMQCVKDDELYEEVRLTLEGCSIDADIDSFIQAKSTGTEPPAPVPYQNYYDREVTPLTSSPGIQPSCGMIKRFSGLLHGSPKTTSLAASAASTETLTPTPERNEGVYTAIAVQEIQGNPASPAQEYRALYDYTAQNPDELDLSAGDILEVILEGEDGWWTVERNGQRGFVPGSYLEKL

T2: B42-CD2BP1S/ΔSH3 (CD2BP1S truncation construct lacking the terminal SH3 domain) (human, UniProt O43586 1-359)
T2 sequence: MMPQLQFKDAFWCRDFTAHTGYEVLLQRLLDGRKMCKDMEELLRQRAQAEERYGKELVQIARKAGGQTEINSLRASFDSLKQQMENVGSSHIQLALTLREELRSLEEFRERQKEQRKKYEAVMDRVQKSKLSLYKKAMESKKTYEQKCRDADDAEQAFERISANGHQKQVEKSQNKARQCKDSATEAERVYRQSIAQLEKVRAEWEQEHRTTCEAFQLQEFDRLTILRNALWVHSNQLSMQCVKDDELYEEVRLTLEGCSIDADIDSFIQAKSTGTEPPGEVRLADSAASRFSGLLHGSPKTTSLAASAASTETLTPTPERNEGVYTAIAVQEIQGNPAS

T3: B42-CD2BP1S fusion (CD2BP1S in pJG4-5) (human, UniProt O43586 1-416)
T3 construct: also called clone #48; CD2BP1S/pJG4-5
T3 sequence: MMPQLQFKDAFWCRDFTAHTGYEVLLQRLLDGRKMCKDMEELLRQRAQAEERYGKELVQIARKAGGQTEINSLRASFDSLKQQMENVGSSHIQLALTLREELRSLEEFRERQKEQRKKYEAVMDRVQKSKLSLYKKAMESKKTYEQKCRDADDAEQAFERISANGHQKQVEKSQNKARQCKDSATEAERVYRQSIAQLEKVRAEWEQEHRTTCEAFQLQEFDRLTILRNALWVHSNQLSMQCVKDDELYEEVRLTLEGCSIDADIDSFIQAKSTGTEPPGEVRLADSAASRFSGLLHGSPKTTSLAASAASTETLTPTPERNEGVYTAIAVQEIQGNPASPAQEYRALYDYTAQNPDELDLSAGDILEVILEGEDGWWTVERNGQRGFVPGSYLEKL

T4: human CD2 (wild-type, full length) (human, UniProt P06729 25-351)
T4 construct: whole, on cells; In pull-downs and immunoprecipitations it stood in Triton X-100 cell lysates; in staining and rosetting on the cell surface; also called wtCD2; hCD2wt (W33)
T4 sequence (looked up): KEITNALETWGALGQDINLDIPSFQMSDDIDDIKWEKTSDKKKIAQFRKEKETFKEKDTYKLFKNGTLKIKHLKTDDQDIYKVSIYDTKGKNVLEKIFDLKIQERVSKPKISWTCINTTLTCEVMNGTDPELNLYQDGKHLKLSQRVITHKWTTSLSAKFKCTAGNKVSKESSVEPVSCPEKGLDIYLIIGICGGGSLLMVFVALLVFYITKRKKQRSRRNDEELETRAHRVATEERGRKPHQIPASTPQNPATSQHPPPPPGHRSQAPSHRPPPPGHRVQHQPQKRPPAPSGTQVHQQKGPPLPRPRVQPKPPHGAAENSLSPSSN

B1: LexA-CD2 cytoplasmic tail fusion (CD2 bait, aa 221-327) in pEG202 (other, UniProt P0A7C2 1-202, looked up)
chain: MKALTARQQEVFDLIRDHISQTGMPPTRAEIAQRLGFRSPNAAEEHLKALARKGVIEIVSGASRGIRLLQEEEEGLPLVGRVAAGEPLLAQQHIEGHYQVDPSLFKPNADFLLRVSGMSMKDIGIMDGDLLAVHKTQDVRNGQVVVARIDDEVTVKRLKKQGNKVELLPENSEFKPIVVDLRQQSFTIEGLAVGVIRNGDWLNDEELETRAHRVATEERGRKPHQIPASTPQNPATSQHPPPPPGHRSQAPSHRPPPPGHRVQHQPQKRPPAPSGTQVHQQKGPPLPRPRVQPKPPHGAAENSLSPSSN
notes: The CD2 aa numbers (tail ends at 327) appear to count on mature CD2, not on the precursor; also called CD2 tail; pEG202/CD2
B2: human CD58 (on transfected CHO cells) (ligand, UniProt P19256 29-250, looked up)
chain: FSQQIYGVVYGNVTFHVPSNVPLKEVLWKKQKDKVAELENSEFRAFSSFKNRVYLDTVSGSLTIYNLTSSDEDEYEMESPNITDTMKFFLYVLESLPSPTLTCALTNGSIEVQCMIPEHYNSHRGLIMYSWDCPMEQCKRNSTSIYFKMENDLPQKIQCTLSNPLFNTTSSIILTTCIPSSGHSRHRYALIPIPLAVITTCIVLYMNGILKCDRKPDRTNSN
notes: whole, on cells; also called CD58 ligand; human CD58-transfected CHO cells
B3: LexA-CD2 tail truncation construct M (other, UniProt P0A7C2 1-202, looked up)
chain: MKALTARQQEVFDLIRDHISQTGMPPTRAEIAQRLGFRSPNAAEEHLKALARKGVIEIVSGASRGIRLLQEEEEGLPLVGRVAAGEPLLAQQHIEGHYQVDPSLFKPNADFLLRVSGMSMKDIGIMDGDLLAVHKTQDVRNGQVVVARIDDEVTVKRLKKQGNKVELLPENSEFKPIVVDLRQQSFTIEGLAVGVIRNGDWLNDEELETRAHRVATEERGRKPHQIPASTPQNPATSQHPPPPPGHRSQAPSHRPPPPGHRVQHQPQKR
B4: LexA-CD2 tail truncation construct N (other, UniProt P0A7C2 1-202, looked up)
chain: MKALTARQQEVFDLIRDHISQTGMPPTRAEIAQRLGFRSPNAAEEHLKALARKGVIEIVSGASRGIRLLQEEEEGLPLVGRVAAGEPLLAQQHIEGHYQVDPSLFKPNADFLLRVSGMSMKDIGIMDGDLLAVHKTQDVRNGQVVVARIDDEVTVKRLKKQGNKVELLPENSEFKPIVVDLRQQSFTIEGLAVGVIRNGDWLNDEELETRAHRVATEERGRKPHQIPASTPQNPATSQHPPPPPGHRSQAPS
B5: B42-SH334 (SH3 domain of CD2BP1 plus 34 N-terminal amino acids) (other, not shown: large carriers)
chain: ASAASTETLTPTPERNEGVYTAIAVQEIQGNPASPAQEYRALYDYTAQNPDELDLSAGDILEVILEGEDGWWTVERNGQRGFVPGSYLEKL

Legend:
[1] = target: T1, B42-CD2BP1L fusion (CD2BP1L in pJG4-5); test: yeast two-hybrid, lacZ induction
Protocol: (§1) These tail variants were tested in the yeast two-hybrid system for their interaction with CD2BP1L or CD2BP1S as well as CD2BP1 truncations. In FIG. 7, open bars represent the region of CD2BP1 sequence with homology to yeast cdc15 protein aa 116–277; solid bars represent PEST rich regions in the CD2BP1 sequences; and hatched bars represent the SH3 domain in the CD2BP1 sequences. CD2BP1S/ΔSH3 represents CD2BP1 lacking the SH3 domain. $SH334$ includes the entire SH3 domain of CD2BP1 and 34 N-terminal amino acids. $SH366$ includes the SH3 domain of CD2BP1S and 66 N-terminal amino acids. $SH383$ includes the SH3 domain of CD2BP1L and 83 N-terminal amino acids of CD2BP1L. SH^3GGGGS includes the entire SH3 domain of CD2BP1 and an artificial N-terminal linker consisting of the residues shown.
(§2) The strength of the interaction between the CD2 variants and the CD2BP1 constructs was determined by lacZ induction.

[2] = target: T2, B42-CD2BP1S/ΔSH3 (CD2BP1S truncation …); test: yeast two-hybrid, lacZ induction
Protocol: as §1, §2

[3] = target: T3, B42-CD2BP1S fusion (CD2BP1S in pJG4-5); test: yeast two-hybrid (LexA-CD2 tail variant / B42-CD2BP1 construct), lacZ induction
Protocol: as §1, §2

[4] = target: T4, human CD2 (wild-type, full length); test: cell-cell conjugates of activated human T cells with CD58-transfected CHO cells, immunofluorescence
Protocol: For image analysis of the CD2BP1 association with CD2, CD2 molecules on the activated T cell surface were induced to cluster by either a pair of anti-CD2 antibodies (anti-T11_2 plus anti-T11_3) or by CD58 ligand directed CD2 relocalization. For antibody crosslinking, activated T cells were incubated with anti-T11_2 mAb (5 μg/ml) and direct Texas red labeled anti-T11_3 mAb (1:50) in FACS buffer at 4° C. for 30 min, followed by two washes with FACS buffer and fixation by incubation in 2% paraformaldehyde/PBS. The cells were then permeabilized and stained with directly FITC-labeled anti-CD2BP1 mAb, followed by fluoroimaging analysis as described above. For ligand induced surface CD2 relocalization, activated T cells were incubated with CD58 transfected CHO cells prebound to coverslips to induce cellular conjugate formation as described previously (Li et al., 1996). After washing off the non-conjugated T cells and fixation in 1% parafornaldehyde, the conjugates were stained with anti-T11_3 antibody (1:50) at 4° C. for 30 min, followed by washing, permeabilization and staining with anti-CD2BP1 antibody as described above. The stained conjugates on the coverslips were then subject to fluoroimaging analysis. […]

[5] = target: T3, B42-CD2BP1S fusion (CD2BP1S in pJG4-5); test: yeast two-hybrid, lacZ induction
Protocol: as §1, §2

[6] = target: B4; test: yeast two-hybrid, lacZ induction
Protocol: as §1, §2

[7] = target: B3; test: yeast two-hybrid, lacZ induction
Protocol: as §1, §2

Binder	binding result [1]	binding result [2]	binding result [5]	further results
B1	binds	no binding	–	binding result [3]: binds
B2	–	–	–	binding result [4]: binds
B3	no binding	no binding	no binding	–
B4	no binding	no binding	no binding	–
B5	–	–	–	binding result [6]: no binding; binding result [7]: no binding
